Experimental data reported in the Human Domainome abundance scans (Beltran et al. 2025).

B1: Segment polarity protein dishevelled homolog DVL-3, residues 2 to 81; numbered along this chain, Q92997 (parent)
chain: GETKIIYHLDGQETPYLVKLPLPAERVTLADFKGVLQRPSYKFFFKSMDDDFGVVKEEISDDNAKLPCFNGRVVSWLVSA

Variants of: B1
Assay: abundance fitness (aPCA) (normalised: wild type 0, dead -1); higher = more abundant; growth selection in yeast, the domain comes from the species named
Conditions: Homo sapiens

Abundance fitness, by site and new letter:
W76: P -0.625 | R -0.72 | I -1.4 | V -0.565 | Q -0.943 | G -0.648 | L -0.842 | F -0.482 | M -0.678 | C -0.737 | Y -0.456 | T -0.579 | K -0.709 | N -0.661 | E -0.891 | H -1.2
V74: M -0.198 | G -0.716 | L -0.427 | Y 0.236 | H -0.249 | W -0.243 | P -0.981 | K -0.953 | N -0.511 | Q -0.777 | R -0.446
S79: C -0.228 | Y -0.864 | F -0.504 | R -0.31 | A -0.206 | H -0.466 | L -0.67 | P 0.16 | M -0.556 | E 0.002 | I -0.652 | V -0.682 | K -0.204 | D 0.079 | G -0.287 | T -0.179 | W -0.71 | Q -0.248
L77: Y -0.911 | T -0.243 | I -0.358 | P -0.929 | V -0.064 | G -0.572 | C -0.29 | D -0.471 | M -0.395 | S -0.831 | K -0.261 | R -0.903 | F -0.855 | H -0.536 | N -0.751 | A -1.11 | E -0.915
V78: R -0.322 | N -0.585 | L -0.398 | T -0.127 | A -0.836 | G -0.558 | M -0.19 | E -0.008 | Q -0.486 | F -0.162 | S -0.587 | D -0.708 | I -0.139 | W -0.228 | C -0.131 | K -0.105 | Y 0.102
A80: I -0.004 | V -0.105 | F -0.098 | Q -0.029 | H -0.089 | K 0.212 | L -0.239 | N 0.11 | R -0.164 | Y -0.405 | G 0.014 | T 0.185 | C -0.015 | D 0.267 | E 0.191 | M -0.101 | S 0.088
S75: L -0.463 | F -0.793 | T -0.519 | H -0.6 | W -0.603 | V -0.161 | D -0.723 | C 0.099 | M -0.726 | N -0.899 | E -0.782 | Y -0.669 | R -0.606 | G -0.221 | K -0.967 | P -0.59 | I -0.459
